Patent US11491212

Tests used:
[1] = target: Factor X (FX), P00742
[2] = target: Factor X, P00742
Chain of Factor X, P00742 (P00742 whole entry, looked up): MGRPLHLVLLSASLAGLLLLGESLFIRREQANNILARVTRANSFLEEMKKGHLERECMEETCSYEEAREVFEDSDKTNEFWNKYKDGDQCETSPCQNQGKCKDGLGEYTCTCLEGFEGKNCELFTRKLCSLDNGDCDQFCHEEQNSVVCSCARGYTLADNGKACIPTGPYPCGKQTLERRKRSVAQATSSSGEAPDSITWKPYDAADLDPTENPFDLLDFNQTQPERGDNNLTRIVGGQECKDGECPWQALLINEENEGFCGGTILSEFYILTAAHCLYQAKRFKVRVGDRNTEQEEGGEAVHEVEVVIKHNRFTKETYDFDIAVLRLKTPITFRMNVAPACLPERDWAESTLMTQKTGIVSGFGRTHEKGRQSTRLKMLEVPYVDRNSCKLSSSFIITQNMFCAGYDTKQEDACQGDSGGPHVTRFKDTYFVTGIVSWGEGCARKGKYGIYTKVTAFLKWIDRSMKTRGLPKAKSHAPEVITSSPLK

Chain of Factor X (FX), P00742 (P00742 whole entry, looked up): as above

B1: FIXa-R318Y/R338E/E410N/T412V (protein)
chain 1: not shown
chain 2: not shown
[1]
  % of WT kcat/KM (against Catalyst Biosciences WT FIXa), FX activation in the Xase complex: 536%
  KM: 0.0236 µM
  kcat: 5.2 s⁻¹
  kcat/KM for FX activation by FIXa in the Xase complex (FVIIIa, PC/PS vesicles, Ca2+), indirect fluorogenic Spectrafluor FXa assay: 2.4e+08 M⁻¹ s⁻¹
[2]
  kcat/KM: 2.6e+08 M⁻¹ s⁻¹

B2: FIXa-D104N/K106S/K228N/K247N/N249S/R318Y/R338E/R403E/E410N (protein)
chain 1: not shown
chain 2: not shown
[1]
  KM: 0.0533 µM
[2]
  kcat: 6.1 s⁻¹
  kcat/KM: 1.1e+08 M⁻¹ s⁻¹

B3: FIXa K228N/K247N/N249S/R318Y/T343R/R403E/E410N (protein)
chain 1: not shown
chain 2: not shown
[1]
  kcat (s^-1), activation of FX by FIXa in the Xase complex: 8.1 s⁻¹
[2]
  % of WT kcat/KM: 153%
  kcat/KM: 7.1e+07 M⁻¹ s⁻¹

B4: FIXa-Y155F/K247N/N249S/R318Y/R338E/R403E/E410N (protein)
chain 1: not shown
chain 2: not shown
[1]
  % of WT kcat/KM (against Catalyst Biosciences WT FIXa): 405%
  KM: 0.0363 µM
  kcat/KM for activation of FX by FIXa in the Xase complex (FVIIIa, PC/PS vesicles, Ca2+), fluorogenic Spectrafluor FXa read-out: 1.9e+08 M⁻¹ s⁻¹
[2]
  kcat: 6.2 s⁻¹

B5: FIXa-Y155F/K247N/N249S/R318Y/R338E/E410N (protein)
chain 1: not shown
chain 2: not shown
[1]
  % of WT kcat/KM (against Catalyst Biosciences WT FIXa): 717%
  KM: 0.0147 µM
  kcat/KM for activation of FX by FIXa in the Xase complex (FVIIIa, PC/PS vesicles, Ca2+), fluorogenic Spectrafluor FXa read-out: 3.3e+08 M⁻¹ s⁻¹
[2]
  kcat: 4.5 s⁻¹

B6: FIXa-R318Y/R338E/R403E/E410S (protein)
chain 1: not shown
chain 2: not shown
[1]
  % of WT kcat/KM (against Catalyst Biosciences WT FIXa): 458%
  KM: 0.0364 µM
  kcat/KM for activation of FX by FIXa in the Xase complex (FVIIIa, PC/PS vesicles, Ca2+), fluorogenic Spectrafluor FXa read-out: 2.1e+08 M⁻¹ s⁻¹
[2]
  kcat: 7.4 s⁻¹

B7: FIXa-Y155F/K228N/R318Y/R338E/R403E/E410N (protein)
chain 1: not shown
chain 2: not shown
[1]
  % of WT kcat/KM (against Catalyst Biosciences WT FIXa): 356%
  KM: 0.0408 µM
  kcat/KM for activation of FX by FIXa in the Xase complex (FVIIIa, PC/PS vesicles, Ca2+), fluorogenic Spectrafluor FXa read-out: 1.6e+08 M⁻¹ s⁻¹
[2]
  kcat: 6.7 s⁻¹

B8: FIXa-R318Y/R338E/R403E/E410N/T412A (protein)
chain 1: not shown
chain 2: not shown
[1]
  KM: 0.0344 µM
  kcat: 7.8 s⁻¹
[2]
  kcat/KM: 2.5e+08 M⁻¹ s⁻¹

B9: FIXa-K228N/K247N/N249S/R318Y/R338E/R403E/E410N (protein)
chain 1: not shown
chain 2: not shown
[1]
  % of WT kcat/KM (against Catalyst Biosciences WT FIXa): 352%
  KM: 0.0497 µM
  kcat/KM for activation of FX by FIXa in the Xase complex (FVIIIa, PC/PS vesicles, Ca2+), fluorogenic Spectrafluor FXa read-out: 1.6e+08 M⁻¹ s⁻¹
[2]
  kcat: 7.1 s⁻¹

B10: FIXa-D104N/K106S/Y155F/K247N/N249S/R318Y/R338E/R403E/E410N (protein)
chain 1: not shown
chain 2: not shown
[1]
  % of WT kcat/KM (against Catalyst Biosciences WT FIXa): 292%
  KM: 0.0518 µM
  kcat/KM for activation of FX by FIXa in the Xase complex (FVIIIa, PC/PS vesicles, Ca2+), fluorogenic Spectrafluor FXa read-out: 1.3e+08 M⁻¹ s⁻¹
[2]
  kcat: 6.9 s⁻¹

B11: FIXa-R318Y/R338E/R403E/E410N/T412V (protein)
chain 1: not shown
chain 2: not shown
[1]
  KM: 0.0483 µM
  kcat: 7 s⁻¹
[2]
  kcat/KM: 1.6e+08 M⁻¹ s⁻¹

B12: FIXa-I251S/R318Y/R338E/E410N (protein)
chain 1: not shown
chain 2: not shown
[1]
  % of WT kcat/KM (against Catalyst Biosciences WT FIXa): 849%
  KM: 0.0161 µM
  kcat/KM for activation of FX by FIXa in the Xase complex (FVIIIa, PC/PS vesicles, Ca2+), fluorogenic Spectrafluor FXa read-out: 3.9e+08 M⁻¹ s⁻¹
[2]
  kcat: 6.4 s⁻¹
